# System: B16F10-Red-FLuc mouse melanoma cells
# Assay: B16F10-Red-FLuc experimental metastasis to the lung, N/P=4 and N/P=6 versus recombinant mIL-12 (Example 9)
# Format: in vivo, C57BL/6 mice
# Experimental: The anti-tumor effect of nanoparticles containing PEG-mIL12 and expressing mIL-12 was compared to recombinant mIL-12 protein administered subcutaneously. The experimental design was as Example 8 but nanoparticles were prepared at N/P=4 and N/P=6 ratios. Nanoparticles were dosed as before for N/P=6, however, for the N/P=4 formulation the dose was maintained at 2 mg/kg in 10 mL/kg at day 8. For dosing of the recombinant protein, 10 μg of recombinant mIL-12 (PeproTech, Rocky Hill, N.J., USA) were reconstituted in PBS to make a 100 μg/mL stock solution. Dosing of the animals was at 4 μg/kg for the initial dose (Day 5) followed by four subsequent doses 12 μg/kg at the same intervals as the nanoparticles (Day 8, 11, 14 and 17).
molecule,measurement,setting,value
"recombinant mIL-12: recombinant mIL-12 protein (PeproTech) administered subcutaneously (protein, UniProt P43431 23-215; P43432 23-335, looked up) Interleukin-12 subunit alpha: RVIPVSGPARCLSQSRNLLKTTDDMVKTAREKLKHYSCTAEDIDHEDITRDQTSTLKTCLPLELHKNESCLATRETSSTTRGSCLPPQKTSLMMTLCLGSIYEDLKMYQTEFQAINAALQNHNHQQIILDKGMLVAIDELMQSLNHNGETLRQKPPVGEADPYRVKMKLCILLHAFSTRVVTINRVMGYLSSA Interleukin-12 subunit beta: MWELEKDVYVVEVDWTPDAPGETVNLTCDTPEEDDITWTSDQRHGVIGSGKTLTITVKEFLDAGQYTCHKGGETLSHSHLLLHKKENGIWSTEILKNFKNKTFLKCEAPNYSGRFTCSWLVQRNMDLKFNIKSSSSSPDSRAVTCGMASLSAEKVTLDQRDYEKYSVSCQEDVTCPTAEETLPIELALEARQQNKYENYSTSFFIRDIIKPDPPKNLQMKPLKNSQVEVSWEYPDSWSTPHSYFSLKFFVRIQRKKEKMKETEEGCNQKGAFLVEKTSTEVQCKGGNVCVQAQDRYYNSSCSKWACVPCRVRS",Median survival time compared with Trehalose control,"Log-rank test: p≤0.01 for formulations of PEG-mIL12, p≤0.05 for recombinant mIL-12, Trehalose 22.0 days",significantly longer
same,tumor growth by luminescence readings compared with 9.5% Trehalose control,Study Day 19,significant (p≤0.05) inhibition of tumor growth
same,Median survival time,"nanoparticles i.v. 2 mg/kg Days 5, 8, 11, 14, 17 (N/P=6: 1 mg/kg Day 8), recombinant mIL-12 subcutaneously 4 μg/kg Day 5 then 12 μg/kg",25.0 days

# Reference: patent publication US20210155955A1, “THERAPEUTIC CONSTRUCTS FOR TREATING CANCER” (CANCER TARGETING SYSTEMS, INC., priority 2018, published 2021)
